Data from paper PMC5199234.

Legend:
[1] = biological target: T1, U1A N-terminal RRM (native) (UniProt P09012 1-102); experiment: SPR
[2] = biological target: T1, U1A N-terminal RRM (native); experiment: SPR; remark: listed apart in the source

T1 sequence (P09012 1-102): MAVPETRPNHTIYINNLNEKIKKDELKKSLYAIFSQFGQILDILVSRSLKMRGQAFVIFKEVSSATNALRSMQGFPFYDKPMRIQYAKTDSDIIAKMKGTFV

Binder | binding result [1] | Kd [2]
GGCAGAUCUGAGCCUGGGAGCUCUCUGCC (structured_RNA) [TAR] | no binding | 
AGCUUAUCCAUUGCACUCCGGAUGAGCU (structured_RNA) [U1hpII] |  | ~0.04 nM
